The labels stand for the following.
B1: Wild-type: Arabidopsis thaliana wild-type ALS expressed in Escherichia coli, crude protein extract (protein, UniProt P17597 56-670, looked up)
Acetolactate synthase, …: SSSPSSISAVLNTTTNVTTTPSPTKPTKPETFISRFAPDQPRKGADILVEALERQGVETVFAYPGGASMEIHQALTRSSSIRNVLPRHEQGGVFAAEGYARSSGKPGICIATSGPGATNLVSGLADALLDSVPLVAITGQVPRRMIGTDAFQETPIVEVTRSITKHNYLVMDVEDIPRIIEEAFFLATSGRPGPVLVDVPKDIQQQLAIPNWEQAMRLPGYMSRMPKPPEDSHLEQIVRLISESKKPVLYVGGGCLNSSDELGRFVELTGIPVASTLMGLGSYPCDDELSLHMLGMHGTVYANYAVEHSDLLLAFGVRFDDRVTGKLEAFASRAKIVHIDIDSAEIGKNKTPHVSVCGDVKLALQGMNKVLENRAEELKLDFGVWRNELNVQKQKFPLSFKTFGEAIPPQYAIKVLDELTDGKAIISTGVGQHQMWAAQFYNYKKPRQWLSSGGLGAMGFGLPAAIGASVANPDAIVVDIDGDGSFIMNVQELATIRVENLPVKVLLLNNQHLGMVMQWEDRFYKANRAHTFLGDPAQEDEIFPNMLLFAAACGIPAARVTKKADLREAIQTMLDTPGPYLLDVICPHQEHVLPMIPSGGTFNDVITEGDGRIKY
B2: P197S: Arabidopsis thaliana P197S-mutant ALS expressed in Escherichia coli, crude protein extract (protein, UniProt P17597 56-670, looked up, variant P197S)
Acetolactate synthase, …: SSSPSSISAVLNTTTNVTTTPSPTKPTKPETFISRFAPDQPRKGADILVEALERQGVETVFAYPGGASMEIHQALTRSSSIRNVLPRHEQGGVFAAEGYARSSGKPGICIATSGPGATNLVSGLADALLDSVPLVAITGQVSRRMIGTDAFQETPIVEVTRSITKHNYLVMDVEDIPRIIEEAFFLATSGRPGPVLVDVPKDIQQQLAIPNWEQAMRLPGYMSRMPKPPEDSHLEQIVRLISESKKPVLYVGGGCLNSSDELGRFVELTGIPVASTLMGLGSYPCDDELSLHMLGMHGTVYANYAVEHSDLLLAFGVRFDDRVTGKLEAFASRAKIVHIDIDSAEIGKNKTPHVSVCGDVKLALQGMNKVLENRAEELKLDFGVWRNELNVQKQKFPLSFKTFGEAIPPQYAIKVLDELTDGKAIISTGVGQHQMWAAQFYNYKKPRQWLSSGGLGAMGFGLPAAIGASVANPDAIVVDIDGDGSFIMNVQELATIRVENLPVKVLLLNNQHLGMVMQWEDRFYKANRAHTFLGDPAQEDEIFPNMLLFAAACGIPAARVTKKADLREAIQTMLDTPGPYLLDVICPHQEHVLPMIPSGGTFNDVITEGDGRIKY
B3: W574L: Arabidopsis thaliana W574L-mutant ALS expressed in Escherichia coli, crude protein extract (protein, UniProt P17597 56-670, looked up, variant W574L)
Acetolactate synthase, …: SSSPSSISAVLNTTTNVTTTPSPTKPTKPETFISRFAPDQPRKGADILVEALERQGVETVFAYPGGASMEIHQALTRSSSIRNVLPRHEQGGVFAAEGYARSSGKPGICIATSGPGATNLVSGLADALLDSVPLVAITGQVPRRMIGTDAFQETPIVEVTRSITKHNYLVMDVEDIPRIIEEAFFLATSGRPGPVLVDVPKDIQQQLAIPNWEQAMRLPGYMSRMPKPPEDSHLEQIVRLISESKKPVLYVGGGCLNSSDELGRFVELTGIPVASTLMGLGSYPCDDELSLHMLGMHGTVYANYAVEHSDLLLAFGVRFDDRVTGKLEAFASRAKIVHIDIDSAEIGKNKTPHVSVCGDVKLALQGMNKVLENRAEELKLDFGVWRNELNVQKQKFPLSFKTFGEAIPPQYAIKVLDELTDGKAIISTGVGQHQMWAAQFYNYKKPRQWLSSGGLGAMGFGLPAAIGASVANPDAIVVDIDGDGSFIMNVQELATIRVENLPVKVLLLNNQHLGMVMQLEDRFYKANRAHTFLGDPAQEDEIFPNMLLFAAACGIPAARVTKKADLREAIQTMLDTPGPYLLDVICPHQEHVLPMIPSGGTFNDVITEGDGRIKY

By Km is commonly meant the concentration of substrate that gives half-maximal velocity.

A short description of this data set: Kinetic parameters of enzymatic activity of AHAS mutants. Format: biochemical, Arabidopsis thaliana. The following applies: pyruvate varied 0-120 mM. How it is done: The coding sequences of the Arabidopsis thaliana wild-type and P197S-, W574L-, and S653N-mutant ALS genes were cloned into Novagen pET-32a(+) vectors and the vectors transformed into Escherichia coli AD494 according to the instructions of the manufacturer. Bacteria were grown at 37° C. in LB-medium containing 100 mg/1 carbenicillin and 25 mg/1 canamycin, induced with 1 mM isopropyl-β-D-thiogalactopyranoside at an OD600 of 0.6, cultivated for 16 hours at 18° C. and harvested by centrifugation. Bacterial pellets were resusupended in 100 mM sodium phosphate buffer pH 7.0 containing 0.1 mM thiamine-pyrophosphate, 1 mM MgCl2, and 1 μM FAD at a concentration of 1 gram wet weight per 25 ml of buffer and disrupted by sonification. The crude protein extract obtained after centrifugation was used for ALS activity measurements.
ALS assays were carried out in 96-well microtiter plates using a modification of the procedure described by Ray (1984), Plant Physiol 75:827-831. The reation mixture contained 20 mM potassium phosphate buffer pH 7.0, 20 mM sodium pyruvate, 0.45 mM thiamine-pyrophosphate, 0.45 mM MgCl2, 9 μM FAD, ALS enzyme and various concentrations of ALS inhibitors in a final volume of 90 μl. Assays were initiated by adding enzyme and terminated after 75 min incubation at 30° C. by the addition to 40 μl 0.5 M H2SO4. […] The pI50 values measured for the different mutant AHAS proteins and calculated for the mixtures of two different AHAS enzymes are shown in Table 3. […] Reaction velocities were tiffed to the Michalis-Menten equation with the XLFit curve fitting program.
Regarding B1, the Km worked out at 2.1 ± 0.1 mM and the Vmax is listed as 42.7 ± 1.3 ΔE/min mg.
Take B2: the Michaelis constant (Km) turned out to be 5.5 ± 0.8 mM and the Vmax is recorded as 50.0 ± 6.1 ΔE/min mg.
For B3 the same measures were 6.9 ± 0.2 mM and 54.4 ± 2.8 ΔE/min mg.

The record behind these values is US20150089682A1, “ALS Inhibitor Herbicide Tolerant B. Napus Mutants” (priority 2012, published 2015).
